Patent publication US20230348612A1 (BEIJING MABWORKS BIOTECH, published 2023)
One block for each binder: values may come before it.

Target: T1, CD20 on Raji cells (CD20+ tumor cells) (UniProt P11836 1-297, limits assumed)
T1 construct: whole, on cells; also called CD20^+ Raji cells
T1 sequence (looked up): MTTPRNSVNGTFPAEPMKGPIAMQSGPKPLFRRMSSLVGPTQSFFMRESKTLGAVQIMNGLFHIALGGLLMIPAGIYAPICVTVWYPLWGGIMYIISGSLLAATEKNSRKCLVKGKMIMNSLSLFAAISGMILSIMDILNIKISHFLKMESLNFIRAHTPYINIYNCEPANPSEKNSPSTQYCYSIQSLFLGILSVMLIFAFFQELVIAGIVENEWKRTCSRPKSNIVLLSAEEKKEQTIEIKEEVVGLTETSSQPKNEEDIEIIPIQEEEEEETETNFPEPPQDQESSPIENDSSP
Assay: FACS on Raji cells
Procedure: For the assay to test the MBS303 and MBS303m′ binding activity to Raji and Jurkat cells, 10⁵ Raji or Jurkat cells were plated on 96-well ELISA plates in 100 μ1 cell culture medium, and the ELISA plates were added with 50 μl serially diluted MBS303 and MBS303m, respectively. […] The ELISA plates were incubated 4° C. for 1 h, washed with PBS for three times, and subject to the BD flow cytometry system for FACS.

binding result: binds
B1: MBS303 (anti-CD3/CD20 bispecific antibody, anti-CD20 scFv with wildtype light chain framework regions) (bispecific antibody, human IgG1, kappa, lambda, L234A L235A, N297A)
heavy 1: QVQLVQSGAEVKKPGSSVKVSCKASGYAFSYSWINWVRQAPGQGLEWMGRIFPGDGDTDYNGKFKGRVTITADKSTSTAYMELSSLRSEDTAVYYCARNVFDGYWLVYWGQGTLVTVSSASTKGPSVFPLAPSSKSTSGGTAALGCLVKDYFPEPVTVSWNSGALTSGVHTFPAVLQSSGLYSLSSVVTVPSSSLGTQTYICNVNHKPSNTKVDKKVEPKSCDKTHTCPPCPAPEAAGGPSVFLFPPKPKDTLMISRTPEVTCVVVDVSHEDPEVKFNWYVDGVEVHNAKTKPREEQYASTYRVVSVLTVLHQDWLNGKEYKCKVSNKALPAPIEKTISKAKGQPREPQVYTLPPSREEMTKNQVSLSCAVKGFYPSDIAVEWESNGQPENNYKTTPPVLDSDGSFFLVSKLTVDKSRWQQGNVFSCSVMHEALHNHYTQKSLSLSPGK
light 1: DIVMTQTPLSLPVTPGEPASISCRSSKSLLHSNGITYLYWYLQKPGQSPQLLIYQMSNLVSGVPDRFSGSGSGTDFTLKISRVEAEDVGVYYCAQNLELPYTFGGGTKVEIKRTVAAPSVFIFPPSDEQLKSGTASVVCLLNNFYPREAKVQWKVDNALQSGNSQESVTEQDSKDSTYSLSSTLTLSKADYEKHKVYACEVTHQGLSSPVTKSFNRGEC
heavy 2: QVQLVQSGAEVKKPGSSVKVSCKASGYAFSYSWINWVRQAPGQGLEWMGRIFPGDGDTDYNGKFKGRVTITADKSTSTAYMELSSLRSEDTAVYYCARNVFDGYWLVYWGQGTLVTVSSGGGGSGGGGSGGGGSDIVMTQTPLSLPVTPGEPASISCRSSKSLLHSNGITYLYWYLQKPGQSPQLLIYQMSNLVSGVPDRFSGSGSGTDFTLKISRVEAEDVGVYYCAQNLELPYTFGGGTKVEIKGGGGSGGGGSGGGGSEVQLLESGGGLVQPGGSLRLSCAASGFTFNTYAMNWVRQAPGKGLEWVARIRSKYNNYATYYAISVKDRFTISRDDSKNTLYLQMNSLRAEDTAMYYCVRHGNFGNSYLSYWAYWGQGTLVTVSSASTKGPSVFPLAPSSKSTSGGTAALGCLVKDYFPEPVTVSWNSGALTSGVHTFPAVLQSSGLYSLSSVVTVPSSSLGTQTYICNVNHKPSNTKVDKKVEPKSCDKTHTCPPCPAPEAAGGPSVFLFPPKPKDTLMISRTPEVTCVVVDVSHEDPEVKFNWYVDGVEVHNAKTKPREEQYASTYRVVSVLTVLHQDWLNGKEYKCKVSNKALPAPIEKTISKAKGQPREPQVYTLPPSREEMTKNQVSLWCLVKGFYPSDIAVEWESNGQPENNYKTTPPVLDSDGSFFLYSKLTVDKSRWQQGNVFSCSVMHEALHNHYTQKSLSLSPGK
light 2: QAVVTQEPSLTVSPGGTVTLTCQSSTGAVTTNNYANWVQQKPGHAFRGLIGGTKQRAPGVPARFSGSLLGGKAALTLSGVQPEDEAEYYCVLWYSNLWVFGGGTKLTVLGQPKAAPSVTLFPPSSEELQANKATLVCLISDFYPGAVTVAWKADSSPVKAGVETTTPSKQSNNKYAASSYLSLTPEQWKSHRSYSCQVTHEGSTVEKTVAPTECS
notes: Asymmetric; half antibodies MIL220 and MIL221-2 were expressed separately and assembled in vitro; also called MIL220 + MIL221-2

binding result: binds
B2: MBS303m (with 83E, 100Q and 104-106LTA) (anti-CD3/CD20 bispecific antibody, anti-CD20 scFv with mutated light chain framework regions) (bispecific antibody, human IgG1, kappa, lambda, L234A L235A, N297A)
heavy 1: B1 heavy 1
light 1: B1 light 1
heavy 2: QVQLVQSGAEVKKPGSSVKVSCKASGYAFSYSWINWVRQAPGQGLEWMGRIFPGDGDTDYNGKFKGRVTITADKSTSTAYMELSSLRSEDTAVYYCARNVFDGYWLVYWGQGTLVTVSSGGGGSGGGGSGGGGSGGGGSDIVMTQTPLSLPVTPGEPASISCRSSKSLLHSNGITYLYWYLQKPGQSPQLLIYQMSNLVSGVPDRFSGSGSGTDFTLKISRVEAEDEGVYYCAQNLELPYTFGQGTKLTAKGGGGSGGGGSGGGGSEVQLLESGGGLVQPGGSLRLSCAASGFTFNTYAMNWVRQAPGKGLEWVARIRSKYNNYATYYAISVKDRFTISRDDSKNTLYLQMNSLRAEDTAMYYCVRHGNFGNSYLSYWAYWGQGTLVTVSSASTKGPSVFPLAPSSKSTSGGTAALGCLVKDYFPEPVTVSWNSGALTSGVHTFPAVLQSSGLYSLSSVVTVPSSSLGTQTYICNVNHKPSNTKVDKKVEPKSCDKTHTCPPCPAPEAAGGPSVFLFPPKPKDTLMISRTPEVTCVVVDVSHEDPEVKFNWYVDGVEVHNAKTKPREEQYASTYRVVSVLTVLHQDWLNGKEYKCKVSNKALPAPIEKTISKAKGQPREPQVYTLPPSREEMTKNQVSLWCLVKGFYPSDIAVEWESNGQPENNYKTTPPVLDSDGSFFLYSKLTVDKSRWQQGNVFSCSVMHEALHNHYTQKSLSLSPGK
light 2: B1 light 2
notes: also called MIL220 + MIL221-3 (with 83E, 100Q, 104-106LTA)
